Laboratory results from the DeepSol protein solubility set.

Assay: soluble on expression in E. coli; label from the status in PepcDB or PDB records

SLCHVTRPDAVVMEIEVDAKANGEDCLNKVCRKLGIIEVDYFGLQFSGSKGENLWLNLRNRISQQMDNLTPCRLRLRVKFFVEPHLILQEQTRHLFFMHVKEDLHRGHLRMCSEQAQELSALLAQAEFGDYNQNTAKYWYTELCGSEPNQTTINSIIAKHKALEGLSQASVEYQALQLVSSLEHYGVEWHWARDAEAQRLAIGVGPEGIAICRDDFSLVNRISYPIIQIATQSGKSVYLTVTKESSDSVVLLFKLISN
soluble on expression in E. coli: soluble

GAMAWGSSWLLLKNLTAQIDGPTLRTLCMQHGPLVSFHPYLNQGIALCKYTTREEANKAQMALNNCVLANTTIFAESPSENEVQSIMQH
soluble on expression in E. coli: soluble

MGSDKIHHHHHHMTIRGKAYIAGIYEHPTRHAPDKSIAQLHAEVAKGALDDAGLTKADIDGYFCAGDAPGGVMAMVDYLGLKVRHFDSTDTGGCSYLVHLGHAAEAIAAGRCSVALITLAGKPRTGALPPRPVGAEGDFELAYGATTHNVYAMCAARHMHQYGTTSEQLAWIKVAASHHAQYNEHAMLRDVVTVEDVLNSPLIADPLHRMDCCVVTDGGGALIVTTEEIARSLKKPLVRMIGAGEAIKGPRGGHNLDLTYSAGVWSAPPAFEMAGVTPKDIKYASIYDSFTITVLMQLEDLGFCEKGQGGKFVADGNLISGVGKLPFNTDGGGLCSNHPVNRGGMTKLLEAVRQLRGEAHPKVQVPNCDLAIAHGTGGMLGIRHAASTCILERV
soluble on expression in E. coli: not soluble

GQHSLQYFHTAVSRPGLGEPWFISVGYVDDTQFVRFDSDAENPRMEPRARWMEQEGPEYWERETQIAKGHEQSFRGSLRTAQSYYNQSKGGSHTLQWMYGCDMGSDGRLLRGYLQFAYEGRDYIALNEDLKTWTAVDMAAQITRRKWEQAGIAEKDQAYLEGTCMQSLRRYLELGKETLLRTDPPKAHVTHHPRSYGAVTLRCWALGFYPADITLTWQLNGEELTQDMELVETRPAGDGTFQKWASVVVPLGKEQNYTCHVNHEGLPEPLTLRW
soluble on expression in E. coli: soluble

MGSDKIHHHHHHMARIPRFALVERDSSNHCTWRAHDFEHVLEEAGATDKFLELLGRYKEKYGVEINSYCLMGTHPHVTCTTRRDQEQFSRFWQVVNGQFARWYNKRRERRGQVVMERMRSPRIQAEGAHQLTVMRYGDLNPVRAGLVKSPKDWKWSSYRHYAFGEPDPLIDDAPEYLALGKTGPQRRKAYQALFALPLSESLRTRRIDLVEYPFVGDAHWVMHRLDVAGLSPPD
soluble on expression in E. coli: not soluble

MGSDKIHHHHHHMNDENIQSSNYQPFPSFDDWKQIEVSLLDVIESSRHFSDLKDSTDRSALDAALERAKRAAAVDTNAIEGIFQTDRGFTHTVATQVGAWEQQMAMKGKHVKPAFDDTLEGFEYVLDAVTGRTPISQQWIRNLHAVILRSQESHEVFTAVGVQNQALQKGEYKTQPNSPQRSDGSVHAYAPVEDTPAEMARFISELESKEFLAAEKVIQAAYAHYAFVCIHPFADGNGRVARALASVFLYKDPGVPLVIYQDQRRDYIHALEAADKNNPLLLIRFFAERVTDTINSIIVDLTTPIAGKSGSAKLSDALRPTRVLPELHDAAHRLQESLFTEIRSRLDEEGKRNGLEFLLQRIFIGSPFNLPEGYNAFPDSYCLTLAFNSNSPKQIFHPLSIVIAARDGKRASSDLVAATSIGYNFHAYGREVEPVVTESFRERVKIYADGIVDHFLTELAKKFQQN
soluble on expression in E. coli: not soluble

MTDNTAVRRRYEKSFTERPGFTEDEIEEIREAFNLLDTDGTGTIDPKEIKCAMQSLGLDAKNPMIFRMIADLEKDGYSSIDFEEFMEVITSKLGNKDTREGIQRIFNLFDDDKTGSISLKNLKRVAKELGETLTDEELRDMIDRADSKGEGEISFEDFYTIMTKKSFL
soluble on expression in E. coli: not soluble

MGSDKIHHHHHHMSGPAGLIVRMDGFNLPAGYLASDEARAISFAYDDRYIAAGGPPLSLSMPLEQVSFGDVTARAFFDNLLPENDQMQRVMDREGLARDDIVGLLSHLGADCSGAISCLPIGADPIKVPGVLSEDYELLAPGAIAEIARSLAERQRLPDTITDPSPVAGVQRKIALTHTPQGFAKPRPGRKVPTTHILKVPETRLRRDARLEAAAARLASALGLDVSIPEAIVIDGVDALLITRFDRVVRDGVVYRLHQEDFAQAMGLPATLKYQRNGAPGRQFDAQAIARVLDQTEAPALSRTAFLSATIFNLLIGNTDNHAKNHGLLYRQGRAPILAPLYDLLPSRMNLDFNDQLSFNIGAADHPDAITFDDMMAFFEVFGMRRAAAARFIENVIKPMIEALERATLGLAGERLKDMDDLIGRETEQLVEVLGLDVAVRERDYYPKVRHALAPS
soluble on expression in E. coli: not soluble

MGSDKIHHHHHHMLLREPDPMNVKEKQMQHTDDTRDIAGVQKPEAPSGRRALITGASSGLGIEFAELLAAQKMNLVLAARRKEPMEKLAEDLRRRHGVDILVEPIDLAAPGAAARLKDSLNERAIQIDILVNNAGYGLQGEFLKTPIERTTDMIQLNITALTELSYVFGRDMAARGSGEILLIASLLAFQPVPTYAAYAATKSYVLSFGEALHDELRTQGVVVTSLCPGHTETGFDAAAGAQVSPMLRLLTMKPRPVAEAGLEALAKGKASVIAGFMNKVVAFSTRLTPRSMQRASMRKVMVP
soluble on expression in E. coli: not soluble

MIIQDIIEAIEAVCPRAYQESYDNSGVQVGDTKREATGALLCVDVTEAVLEEAIRLGCNLVIAHHPILFKPLKRLTGSSYVERCVELAVRHGLVLYAAHTNADNAPQGLNALLAERFGLLNTRPLEPLQGKLLELVTFVPTEYADAVRQALWQAGAGRLGHYDCCSFSHAGTGTFRAAEGANPFVGAISELHHEAEERISLVLPAYRQGTVLQALHAAHPYELPAVSLIPLANDHPSAGGGIVGDLPSPISEREMLLHIKEVFGLKVLSHSAWRERPLRRMAICGGSGAFMWRRAAQEGADLFLTGEAKYNDFFDAGEHLLLVTIGHYESEEVANELFMRIISQKFPTFATHKSSVATNPVNYL
soluble on expression in E. coli: not soluble

MNLEMLESQPVPEIDTLREEIDRLDAEILALVKRRAEVSKAIGKARMASGGTRLVHSREMKVIERYSELGPDGKDLAILLLRLGRGRLGH
soluble on expression in E. coli: soluble

MTMTQQIKAVVYDFGGVLLSYEGVMEKWVAMSRSLGLPDDAVHSESVGIEFSQWLGPDRSLFLGTLTVDDLEGGLFLQYLKHKYGNKLTDNVVIKPFTECLRGENVKIHKNMQKTVEILHKKGFKTAMLTNNMFLDKEHKETRLPCDLTHFDEVVESCLEHLMKPDARFYHLVEKRLGVKPEEIVFLDDLHENIEAAEKLGWNTILVEDIEKAIHELEGFTKVKLI
soluble on expression in E. coli: not soluble

MGARGKFDQFDDGKIKLASSLTSKAAANALQTIIEKYNIVKSGKDYPIEITQIAGGYDGGRTDLQTRVSVKDKTNFYNLILNYPDLVSVLARSGMELLFDKVNVDKLEPNFLKFNEQISGVAKSGNYGIPVSLSTDILVLNGPVLHYILNSAKKEEANSQVKSQIKTSQIQAKGSLTIDTDENTKSLWEKIQNSAKANGETNQKGRKAAKSNKTALVQLKNGADTTTNEENKDTKTSDDKVKQTWGDYVEKDDGLKNYTFRASVFENWHDFLDFSTRVAKSFTEKVSNITNKKGTDIQGVLGVDSSPNVLFASVFAAGGGNYENFFYKLKDGRADFSNFKNKGSSYQNLQSVFKDLEHHHHHH
soluble on expression in E. coli: not soluble

MEVDPGGGKKPMIVKKMVAFSKREEERILLEIDLYKKLENNEFVIDLMAHIVDDITHYLLFDKYSQNFLEYIEELKIGGEVDELKHLKYFSGIVSAIEQLHGFEFAHLDIKPANILKSGDTIKMIDFGSATKMPIEIKTSADHHRHKEDAEELCSMMYRAPELFNCEIGSTLTTAVDVWALGVCLYEFLYLENPFNKIYEQGGSIALATQSPHMIKWNENRHISEKSINLIKSILIVDPNQRPTIGELRAKVDNLLANFDTPEEAENPEITDEEFDLGMRETT
soluble on expression in E. coli: not soluble

MPIKVGINGFGRIGRMVFQALCEDGLLGTEIDVVAVVDMNTDAEYFAYQMRYDTVHGKFKYEVTTTKSSPSVAKDDTLVVNGHRILCVKAQRNPADLPWGKLGVEYVIESTGLFTAKAAAEGHLRGGARKVVISAPASGGAKTLVMGVNHHEYNPSEHHVVSNASCTTNCLAPIVHVLVKEGFGVQTGLMTTIHSYTATQKTVDGVSVKDWRGGRAAAVNIIPSTTGAAKAVGMVIPSTQGKLTGMSFRVPTPDVSVVDLTFTAARDTSIQEIDAALKRASKTYMKGILGYTDEELVSADFINDNRSSIYDSKATLQNNLPKERRFFKIVSWYDNEWGYSHRVVDLVRHMASKDRSARL
soluble on expression in E. coli: soluble

SEHWQAGRFIGQQTSARPSSKPLLAVQIDDLLTLASRFVGEERARQSFIRFAYRQGKGFNPNQNADGDWIEHTERLLAGVLGTSSTRAVVKAAIEGRDMQLEDVVRIADEASEVLQFNRALLQGAIENINQGISVVDQNL
soluble on expression in E. coli: not soluble

DVQLQQSGPGLVAPSQSLSITCTVSGFSLTDYGVNWVRQSPGKGLEWLGVIWGDGITDYNSALKSRLSVTKDNSKSQVFLKMNSLQSGDSARYYCVTGLFDYWGQGTTLTVSSASGADHHHHHH
soluble on expression in E. coli: soluble

MGSDKIHHHHHHMPSLKLSLTGLQIIKQARSEKGWTIDNPCWLEQASQVLEPGRNWENAEVFAAGVSLATWKRFLKGDAIDASVFKAFCQVLGLNWQDLVERPPNSFIIGTTQIPNIPLFFGRRYELTTLSQAIEQGTRLIAITGIGGMGKTALATKLVESRSSHFSQTLWFSFHHNPPAKDKIPTLVPQTLMVFDGWDGILGGNRGGQYRPEYEPYADFLRTVVQTTHTSCVIITSREQPEGLNILGAGGAVIFPLGGLMEGAIELLQHHQLTFNAQQWITLVNQYGGNPLFLNMAANFIHELFAGDVGEFLASGTLVAGEFAPLVTQWLKQISTLEQILIKSLATKVQGFTRQEILLHLASRAANGDILAALLSLKRRGLIETMKDGELERFYLQPVILKCVQRLF
soluble on expression in E. coli: not soluble

MSESITITANSIDNPETDVRRNERFHLVPRKRLEALVTTSGLIGAMIGFYDGVKISSLRYLTENAHRMPKTVGGWYFYHKKKNYVMIVAGVKKAITTSFKYGAAVGGFFGLEYLLDISRGNTIDFFNTTTAAFLTSTFYAKYNKLSSMQTRKMIFKGTALGLTLGLIQDYLIHARKGRVWYLDRYTQQKLV
soluble on expression in E. coli: not soluble

AEFQVTSNEIKTGEQLTTSHVFSGFGCEGGNTSPSLTWSGVPEGTKSFAVTVYDPDAPTGSGWWHWTVVNIPATVTYLPVDAGRRDGTKLPTGAVQGRNDFGYAGFGGACPPKGDKPHHYQFKVWALKTEKIPVDSNSSGALVGYMLNANKIATAEITPVYEIKLE
soluble on expression in E. coli: soluble

MIMICPGCSCLCDDIYIKDGKVFNACRRGEEIFAKYNENRAVARVDGKEVDVDTAIEKAIEILKDAKNPAIYGLDTTVVEAQSLAIEVAEKLNGYIDDNSSFCLGELVEAVLKGEIPTTTLDEVRDNAYVLVYWGTNPYHSLSRHMSKYTYYPRGKRRPRGYDEDRYLVVVDVRKSETAKLAKKNAKFIQVESDAELVDSFMKVVDGKAAKYAKEAGAIITEMKKADFNVIFGGLGLKYGLKDLNMFKEMVKKLNEVAKVYFIPAGFHGNMRGFNETLFEKVGYVNKYSFRDGKSGEEFAFTELLKNEKIDAALIVGTDPVYSLPFDVSSKLGKVKTIVIDPRMSFTARIADVVIPSAISGIEAGGTMVRSDGVRVMLEPLEEKEVNDVYILQRIKEGL
soluble on expression in E. coli: not soluble

MPLLYLNTRECRWYLMGEGEMKKIAAISLISIFLISGCAVHNDETSIGKFGLAYKSNIQRKLDNQYYTEAEASLARGRISGAENIVKNDAAHFCVTQGKKMQIVDLKTEGAGLHGVARLTFKCGE
soluble on expression in E. coli: not soluble

KKDFTWNATVNFSSNQSKVLSLGAETQMLEGRPVGSASGSENVLIKKGYPLGLFYGLQMEGIRSNWHSDYNGIGSADSPWWYATEREMPYGFPSFADTNGDGKVDMSDRVVIGDVNPVFIGGLNTRLRWKFIELAMDFSWSYGNDIINGNVYNLMNNGDIRNKSAVYYKDAWFANNPTGTFTGPGAIDWSGYMWAASNSEMVEDGSFLKMNNLAVTFRMPKNILKAWKIKDLALTYTINNVFCLTNYSGYDPEVRSGSSVNNRILPGVDISAYPYARSHIFSLNFKY
soluble on expression in E. coli: not soluble
